Article PMC3874162 (Nucleic Acids Research, 2013)
Positions count from the first letter of the chain named.

Assays:
[1] = target: T1, Cdc13 (Saccharomyces cerevisiae, UniProt P32797 1-924); experiment: EMSA
T1 sequence: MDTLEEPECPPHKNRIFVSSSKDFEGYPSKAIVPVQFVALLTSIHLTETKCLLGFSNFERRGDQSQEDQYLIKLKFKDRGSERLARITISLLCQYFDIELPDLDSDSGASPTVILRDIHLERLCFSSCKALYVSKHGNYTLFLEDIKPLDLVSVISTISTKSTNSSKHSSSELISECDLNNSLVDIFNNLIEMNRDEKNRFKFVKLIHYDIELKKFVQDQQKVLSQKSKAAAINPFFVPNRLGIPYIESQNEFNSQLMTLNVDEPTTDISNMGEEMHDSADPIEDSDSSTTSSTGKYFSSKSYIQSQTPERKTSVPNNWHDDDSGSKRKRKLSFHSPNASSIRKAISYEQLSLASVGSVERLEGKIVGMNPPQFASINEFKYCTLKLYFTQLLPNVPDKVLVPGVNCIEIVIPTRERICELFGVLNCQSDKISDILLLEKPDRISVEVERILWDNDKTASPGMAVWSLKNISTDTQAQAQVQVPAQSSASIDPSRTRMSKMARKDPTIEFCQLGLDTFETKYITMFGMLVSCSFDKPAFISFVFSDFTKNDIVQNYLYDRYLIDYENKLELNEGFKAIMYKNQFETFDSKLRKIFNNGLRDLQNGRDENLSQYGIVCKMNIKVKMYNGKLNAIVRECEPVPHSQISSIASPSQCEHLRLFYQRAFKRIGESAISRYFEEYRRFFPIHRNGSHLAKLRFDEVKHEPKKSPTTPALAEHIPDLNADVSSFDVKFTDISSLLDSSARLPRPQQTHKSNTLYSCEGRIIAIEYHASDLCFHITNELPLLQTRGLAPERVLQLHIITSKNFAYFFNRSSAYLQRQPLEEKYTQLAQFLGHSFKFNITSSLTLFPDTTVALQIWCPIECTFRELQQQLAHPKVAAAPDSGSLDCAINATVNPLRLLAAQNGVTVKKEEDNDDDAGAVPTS

[2] = target: T2, Cdc13-MOB-DBD (Saccharomyces cerevisiae, UniProt P32797 344-694); experiment: filter binding
T2 sequence: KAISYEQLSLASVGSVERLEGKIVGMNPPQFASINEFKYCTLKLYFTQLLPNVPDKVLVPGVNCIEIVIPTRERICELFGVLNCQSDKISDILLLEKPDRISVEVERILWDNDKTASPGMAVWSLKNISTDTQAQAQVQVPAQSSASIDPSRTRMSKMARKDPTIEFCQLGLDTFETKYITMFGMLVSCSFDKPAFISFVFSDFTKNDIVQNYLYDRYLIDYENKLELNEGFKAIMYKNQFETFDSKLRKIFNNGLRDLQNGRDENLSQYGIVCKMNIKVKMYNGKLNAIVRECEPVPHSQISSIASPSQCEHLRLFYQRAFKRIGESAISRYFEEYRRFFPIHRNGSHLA

[3] = target: T3, Cdc13-L91R (Saccharomyces cerevisiae, UniProt P32797 1-924, L91R); experiment: filter binding
T3 sequence: T1 sequence with L91R

Binder: GTGTGGGTGTG (ssDNA) [Tel11]
- Kd [1]: 0.0134 ± 0.0004 nM
- Kd [2]: 0.18 ± 0.03 nM
- Kd [3]: 0.22 ± 0.05 nM
